Reference: the supplement of paper PMC10567573

B1: TRIM15 (parent)
chain: QSSGKILLCPLCQEEEQAETPMAP
B2: TRAF3IP2 (parent)
chain: PRPPSNPPARGTLKTSNLPEELRK

Variants of: B1
Test: protein stability index of a GFP-peptide fusion (GPS, HEK-293T) (PSI 1-6); higher = more stable
Conditions: c terminus: a fixed tail appended
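Also: lentivirally expressed fusions sorted by FACS into six bins by GFP to DsRed ratio, PSI derived from sequencing read proportions per bin multiplied by bin number.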

Variant | protein stability index
E15W | 1.65
E15Y | 2.53
M22D | 4.14
M22N | 3.52
M22F | 2.86
M22A | 3.99
M22K | 3.16
M22E | 4.34
M22T | 4.48
M22Y | 3.08
M22V | 2.28
M22I | 3.45
M22G | 4.22
M22C | 5.56
M22L | 4.28
A18D | 3.76
A18E | 3.34
A18I | 3.98
A18N | 3.44
A18C | 3.33
A18Y | 2.89
A18G | 2.73
A18P | 4.04
A18F | 2.19
A18T | 3.61

Variant | protein stability index
A18H | 3.29
A18L | 3.25
A18M | 3.1
A18S | 3.74
Q17S | 3.67
Q17I | 2.88
Q17K | 3.29
Q17H | 3.05
Q17P | 4.21
Q17F | 2.55
Q17D | 3.38
Q17G | 3.74
Q17C | 2.23
Q17R | 2.76
Q17M | 3.02
Q17Y | 2.87
Q17N | 3.49
Q17T | 3.63
Q17E | 2.95
Q17A | 2.98
Q17V | 2.82
E19Y | 2.96
E19A | 3.12
E19M | 2.19
E19C | 2

Variant | protein stability index
E19S | 2.51
E19G | 3.09
E19I | 2.77
E19F | 2.06
E19Q | 2.61
E19T | 3.09
E19W | 1.52
E19K | 3.94
E19R | 2.99
E19P | 2.34
E19N | 2.87
E16Y | 3.08
E16M | 2.34
E16L | 2.06
E16W | 2.71
E16P | 3.28
E16D | 3.31
E16V | 2.01
E16K | 3.08
E16Q | 1.72
E16S | 2.59
E16N | 3.1
E16F | 2.23
E16I | 2.69
E16G | 2.78

Variant | protein stability index
E16T | 2.61
E16C | 2.55
T20L | 3.8
T20Y | 2.89
T20Q | 3.5
T20S | 3.5
T20A | 3.65
T20P | 3.16
T20N | 3.4
T20K | 4
T20F | 2.84
T20D | 3.66
T20H | 3.46
T20G | 2.49
T20C | 3.54
T20R | 3.07
T20W | 2.16
T20I | 3.5
T20E | 3.92
P21T | 3.16
P21F | 3.13
P21S | 3.76
P21Q | 3.39
P21A | 3
P21R | 1.83

Variant | protein stability index
P21I | 2.88
P21C | 3.94
P21K | 2.43
P21L | 2.86
P21Y | 2.68
P21M | 2.45
P21H | 2.98
P21G | 3.19
P21E | 3.18
P21V | 3.73
P21N | 3.85
P21D | 3.93
P24S | 3.53
P24G | 3.81
P24T | 3.48
P24A | 4
P24H | 3.88
P24K | 3.17
P24Q | 3.41
P24I | 3.85
P24Y | 2.68
P24L | 3.09
P24E | 4.29
P24M | 3.31
P24C | 2.47

Variant | protein stability index
P24D | 3.79
P24R | 1.71
P24F | 3.25
A23G | 3.52
A23S | 3.86
A23F | 3.25
A23Q | 3.21
A23N | 3.5
A23K | 3.63
A23T | 3.9
A23L | 2.97
A23E | 4.61
A23I | 2.86
A23W | 2.91
A23H | 3.67
A23C | 3.71
A23M | 3.69
A23D | 3.96
A23R | 2.6
A23Y | 2.94
A23V | 4.12

Variants of: B2
Test: as above
Conditions: c terminus: a fixed tail appended

Variant | protein stability index
S5R | 4.36
T15V | 4.48
T15S | 4.79
L13S | 4.94
N6A | 5.47
K14H | 5.22
R23F | 3.92
T12W | 3.65
L18V | 5.06
L18K | 5.26
P4K | 4.91
P4T | 3.97
P7F | 4.21
P7V | 4.11
L22S | 4.96
P8C | 4.48
K24L | 4.31
P3C | 5.15
S16D | 4.83
E20V | 3.41
E21G | 4.36
